Source: PMC11659602, “Discovering covalent cyclic peptide inhibitors of peptidyl arginine deiminase 4 (PADI4) using mRNA-display with a genetically encoded electrophilic warhead” (Communications Chemistry, 2024)
Several values for one entry are separate records, joined by “and”; a condition that tells them apart may be missing. Identical values can stand only once.

Test system: PADIs 1-4
Test: COLDER citrullination activity of purified PADIs 1-4 and PADI4 C645A (no inhibitor)
Assay type: biochemical, human
Details: purified PADI enzyme, no inhibitor (Figure S10)
Protocol: PADI4 citrullination activity was analysed using the COLDER assay in 96-well plates. Peptide dilutions were prepared from a 500 µM stock, to give a 10 times concentrated dilution series (500 µM, 300 µM, 100 µM, 30 µM, 10 µM, 3 µM, 1 µM, 0.3 µM, 0.1 µM and 0.03 µM) in COLDER buffer (50 mM HEPES, 150 mM NaCl and 2 mM DTT, pH 7.5) containing 1% DMSO. In triplicate, each was diluted 10-fold further when mixed with 50 nM His-PADI4, 0.6 mg/mL BSA and 10 mM CaCl2, in COLDER buffer. With or without one hour of incubation, 10 mM N^α-Benzoyl-L-arginine ethyl ester hydrochloride (BAEE, Merck) was added to initiate the reaction (50 µL final volume). After 30 min at rt, EDTA (50 mM final concentration) was used to quench the reaction and 200 µL of COLDER solution containing 20 mM Diacetyl monoxime/2,3-butanedione monoxime (Merck), 0.5 mM Thiosemicarbazide (Acros Organics), 2.25 M H3PO4, 4.5 M H2SO4 and 1.5 mM NH4Fe(SO4)2.12H2O was added to each well. Samples were incubated for 20 min at 95 °C before measuring absorbance at 540 nm on a CLARIOstar Plus (BMG LABTECH). Data analysis was performed with GraphPad Prism. Data are presented as the average ± standard error of the mean from at least two independent replicates.

B1: PADI3 (protein, UniProt Q9ULW8 1-664, looked up)
Protein-arginine deiminase …: MSLQRIVRVSLEHPTSAVCVAGVETLVDIYGSVPEGTEMFEVYGTPGVDIYISPNMERGRERADTRRWRFDATLEIIVVMNSPSNDLNDSHVQISYHSSHEPLPLAYAVLYLTCVDISLDCDLNCEGRQDRNFVDKRQWVWGPSGYGGILLVNCDRDDPSCDVQDNCDQHVHCLQDLEDMSVMVLRTQGPAALFDDHKLVLHTSSYDAKRAQVFHICGPEDVCEAYRHVLGQDKVSYEVPRLHGDEERFFVEGLSFPDAGFTGLISFHVTLLDDSNEDFSASPIFTDTVVFRVAPWIMTPSTLPPLEVYVCRVRNNTCFVDAVAELARKAGCKLTICPQAENRNDRWIQDEMELGYVQAPHKTLPVVFDSPRNGELQDFPYKRILGPDFGYVTREPRDRSVSGLDSFGNLEVSPPVVANGKEYPLGRILIGGNLPGSSGRRVTQVVRDFLHAQKVQPPVELFVDWLAVGHVDEFLSFVPAPDGKGFRMLLASPGACFKLFQEKQKCGHGRALLFQGVVDDEQVKTISINQVLSNKDLINYNKFVQSCIDWNREVLKRELGLAECDIIDIPQLFKTERKKATAFFPDLVNMLVLGKHLGIPKPFGPIINGCCCLEEKVRSLLEPLGLHCTFIDDFTPYHMLHGEVHCGTNVCRKPFSFKWWNMVP
Absorbance at 540 nm: 1.346 and 1.369 and 1.38 and 1.26 and 1.243 and 1.268
